From paper PMC11314421

B1: Q2 (biotinylated, SPR) (structured_RNA)
RNA: UUUUUCCUGGAAUUUGGAGGGAUGGGAGGAGGGGGUGGGGCUUACUUGUUGUAGCUU
B2: Q3 (biotinylated, SPR) (structured_RNA)
RNA: CUCAAGCGGUGCUUGAAGGGGAGGGAAAGCGGGAAAGCGGGCAACCACUUUUCCCUAGC

Target: ΔNCL (DelNucleolin) (UniProt P19338 284-710, del1-283)
Test: SPR

Sequence of ΔNCL (DelNucleolin) (P19338 284-710, stated change not applied): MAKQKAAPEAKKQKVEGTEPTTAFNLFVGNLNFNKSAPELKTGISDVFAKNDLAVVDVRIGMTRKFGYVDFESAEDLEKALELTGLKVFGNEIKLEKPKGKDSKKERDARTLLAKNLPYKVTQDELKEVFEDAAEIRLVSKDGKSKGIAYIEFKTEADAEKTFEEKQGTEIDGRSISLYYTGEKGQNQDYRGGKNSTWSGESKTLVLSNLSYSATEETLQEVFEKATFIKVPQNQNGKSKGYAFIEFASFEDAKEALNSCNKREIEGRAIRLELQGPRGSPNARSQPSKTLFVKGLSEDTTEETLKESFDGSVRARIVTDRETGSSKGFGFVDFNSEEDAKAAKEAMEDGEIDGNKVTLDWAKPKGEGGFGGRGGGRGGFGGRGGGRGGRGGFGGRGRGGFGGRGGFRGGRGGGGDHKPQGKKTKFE

Row | Binder | Kd
1 | B1 | 4 nM
2 | B2 | 15 nM
